Experimental data: EP3388527

Biological target: T1, GP-1 (human, UniProt Q14242)
T1 chain: QATEYEYLDYDFLPETEPP
Experiment: SPR

B1: SelK1 (antibody, V domains shown)
VH: QVQLQQSGPGLVKPSQTLSLTCAISGDSVSSNIAAWHWIRLSPSRGLEWLGRTYYRRSKWNYDYALSVKSRININPDTSKNLFSLQLNSVTPEDTAVYYCTRGGGRAHSAWGQGTLVTVSS
VL: EIVLTQSPGTLSVSPGERATLSCRASQSVSRSHLAWYQQKPGQAPRLLIFGASSRATGIPDRFSGSGSGTDFTLTISRLEPEDFAVYYCQQYGRPGVTFGQGTKVEIK
binding result: no binding
